What was measured:
[1] = molecular target: recombinant nucleoprotein (NP) of influenza A/Brisbane/10/2007 (H3N2) (Influenza A virus A/Brisbane/10/2007 …, UniProt P03466, strain); test: BLI
[2] = molecular target: recombinant NP of influenza A/PR/8/34 (H1N1) purified from bacteria (Influenza A virus A/Puerto Rico/8/1934 …, UniProt P03466); test: far-Western, overlay or dot blot
[3] = molecular target: NP in H1N1 viral lysate (A/Puerto Rico/8/34) (Influenza A virus A/Puerto Rico/8/1934 …, UniProt P03466); test: far-Western, overlay or dot blot
[4] = molecular target: NP WT 1–498 (deletion library, wild type) (Influenza A virus A/California/07/2009 …, UniProt C6KQ05, strain); test: far-Western, overlay or dot blot

B1: anti-NP mouse monoclonal antibody HB65 (antibody, V domains shown)
VH: EVKLVESGGALVNPGGSLKLSCAASGFIFSSYAMSWIRQTPEKRLEWVASTSGGGTTYYLDSVRGRFTISRDNARRILYLQMTSLRSEDTAIYFCGRDGNWFTSWGQGTLVTVSI
VL: NIVMTQSPKSMSMSVGERVTLTCKASENVVTYVSWYQQKPEQSPKLLIYGASNRYTGVPDRFTGSGSATDFTLTISSVQAEDLADYHCGQGYSYPYTFGGGTKLEIK
Kd [1]: 120 ± 21 nM
binding result [2]: binds
binding result [3]: binds
binding result [4]: binds

— PMC11994974 (Virus Research, 2025)
